Results from paper PMC9040152.

Legend:
[1] = target: E5-tagged FcγRIIIa V158, produced in CHO cells (human); test: SPR
[2] = target: E5-tagged Fcγ receptor IIIa, V158 variant (human); test: SPR
E5-tagged Fcγ receptor IIIa, V158 variant (human), sequence (P08637 17-208, change not shown): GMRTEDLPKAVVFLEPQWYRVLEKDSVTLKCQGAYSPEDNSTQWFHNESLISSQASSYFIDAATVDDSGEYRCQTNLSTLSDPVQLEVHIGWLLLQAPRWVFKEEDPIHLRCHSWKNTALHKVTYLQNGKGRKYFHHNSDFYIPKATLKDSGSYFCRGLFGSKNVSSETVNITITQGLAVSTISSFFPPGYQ

E5-tagged FcγRIIIa V158, produced in CHO cells (human), sequence (P08637 17-208): as the sequence (P08637 17-208, change not shown) above

Kd [1]	fold increase in affinity upon digalactosylation, relative to TZM [2]	Substance
32 nM		Trastuzumab co-expressed with β4GT1 and RMD, in vitro α2,6-sialylated (antibody)
	2 fold	Trastuzumab co-expressed with β1,4-galactosyltransferase 1 (TZM GT) (antibody)
